Source: the Human Domainome abundance scans (Beltran et al. 2025)
± gives the uncertainty stated by the source.

Experiment: abundance fitness (aPCA) (normalised: wild type 0, dead -1); higher = more abundant; growth selection in yeast, the domain comes from the species named
Details: Homo sapiens

In order of rising abundance fitness:
1. SAFB-like transcription modulator L34W, Q9NWH9  -1.01 ± 0.057
2. SAFB-like transcription modulator L34I, Q9NWH9  -1 ± 0.31
3. SAFB-like transcription modulator L34R, Q9NWH9  -0.969 ± 0.069
4. SAFB-like transcription modulator L34N, Q9NWH9  -0.964 ± 0.45
5. SAFB-like transcription modulator L48F, Q9NWH9  -0.886 ± 0.062
6. SAFB-like transcription modulator L34K, Q9NWH9  -0.864 ± 0.078
7. SAFB-like transcription modulator L34T, Q9NWH9  -0.831 ± 0.067
8. SAFB-like transcription modulator L39P, Q9NWH9  -0.81 ± 0.067
9. SAFB-like transcription modulator L34P, Q9NWH9  -0.8 ± 0.084
10. SAFB-like transcription modulator L34S, Q9NWH9  -0.778 ± 0.038
11. SAFB-like transcription modulator L39D, Q9NWH9  -0.755 ± 0.075
12. SAFB-like transcription modulator L34M, Q9NWH9  -0.678 ± 0.1
13. SAFB-like transcription modulator L34Q, Q9NWH9  -0.673 ± 0.057
14. SAFB-like transcription modulator L39T, Q9NWH9  -0.631 ± 0.043
15. SAFB-like transcription modulator L34V, Q9NWH9  -0.614 ± 0.068
16. SAFB-like transcription modulator L39N, Q9NWH9  -0.596 ± 0.12
17. SAFB-like transcription modulator L39W, Q9NWH9  -0.591 ± 0.084
18. SAFB-like transcription modulator L48H, Q9NWH9  -0.52 ± 0.059
19. SAFB-like transcription modulator L48I, Q9NWH9  -0.513 ± 0.063
20. SAFB-like transcription modulator L48C, Q9NWH9  -0.51 ± 0.042
21. SAFB-like transcription modulator L39Q, Q9NWH9  -0.499 ± 0.11
22. SAFB-like transcription modulator L39A, Q9NWH9  -0.498 ± 0.069
23. SAFB-like transcription modulator L48N, Q9NWH9  -0.489 ± 0.043
24. SAFB-like transcription modulator L48E, Q9NWH9  -0.478 ± 0.086
25. SAFB-like transcription modulator L39G, Q9NWH9  -0.475 ± 0.045
26. SAFB-like transcription modulator L48G, Q9NWH9  -0.472 ± 0.054
27. SAFB-like transcription modulator L34H, Q9NWH9  -0.465 ± 0.38
28. SAFB-like transcription modulator L39C, Q9NWH9  -0.446 ± 0.079
29. SAFB-like transcription modulator L48A, Q9NWH9  -0.432 ± 0.053
30. SAFB-like transcription modulator L39F, Q9NWH9  -0.409 ± 0.077
31. SAFB-like transcription modulator L48K, Q9NWH9  -0.371 ± 0.055
32. SAFB-like transcription modulator L39E, Q9NWH9  -0.365 ± 0.054
33. SAFB-like transcription modulator L39V, Q9NWH9  -0.356 ± 0.059
34. SAFB-like transcription modulator L39Y, Q9NWH9  -0.305 ± 0.038
35. SAFB-like transcription modulator L39R, Q9NWH9  -0.296 ± 0.05
36. SAFB-like transcription modulator L39H, Q9NWH9  -0.275 ± 0.081
37. SAFB-like transcription modulator L48D, Q9NWH9  -0.274 ± 0.071
38. SAFB-like transcription modulator L39I, Q9NWH9  -0.231 ± 0.074
39. SAFB-like transcription modulator L39K, Q9NWH9  -0.179 ± 0.046
40. SAFB-like transcription modulator L48M, Q9NWH9  -0.075 ± 0.04
41. SAFB-like transcription modulator L39M, Q9NWH9  0.017 ± 0.047
